Test: yeast display, Sf9 membrane polyspecificity reagent, FACS + sequencing; frameworks hold sequencing errors
In short: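 Polyreactivity labels are assigned by the sorting gate from which each nanobody was recovered. The gates were low and high (top ~1%), set on anti-HA fluorescence for expression and streptavidin fluorescence for reagent binding. Before sorting, galactose-induced (36–48 hours) yeast display cells were stained for 1 hour at 4 °C with 10% biotinylated, detergent-solubilized Sf9 membrane reagent.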

Sequence | polyreactivity (PSR sort gate)
QVQLVESGGGLVQAGGSLRLSCAASGSIFGIYAMGWYRQAPGKERELVAAISWSGGSTYYADSVKGRFTISRDNAKNTVYLQMNSLKPEDTAVYYCNADVQLFGWWYGMDYWGQGTQVTVSS | high polyreactivity
QVQLVESGGGLVQAGGSLRLSCAASGSIFGKNAMGWYRQAPGKERELVAAISFSGGSTYYADSVKGRFTISRDNAKNTVYLQMNSLKPEDTAVYYCAARKYSWYPAGGYDYWGQGTQVTVSS | high polyreactivity
QVQLVESGGGLVQAGGSLRLSCAASGSIFGLYAMGWYRPAPGKEREFVATISKSGVSTYYADSVKGRFTISRDNAKNTVYLQMNSLKPEDTALYYCNADISRDNDFDYWGQGTQVTVSS | low polyreactivity
QVQLVESGGGLVQAGGSLRLSCAASGSIFGLYAMGWYRQAAGKERELVAAISASGGSTYYADSVKGRFTISRDNAKNTVYLQMNSLKPEDTAVYYCAVKWRGGPQRGFNYWGQGTQVTVSS | high polyreactivity
QVQLVESGGGLVQAGGSLRLSCAASGSIFGLYAMGWYRQAPGKERELVAAINQSGGSTSYADSVKGRFTISRDNAKNTVYLQMNSLKPEDTAVYYCAADSAFYTGSDYGWSDYDYWGQGTQVTVSS | low polyreactivity
QVQLVESGGGLVQAGGSLRLSCAASGSIFGLYAMGWYRQAPGKERELVAAITWSSGNTYYADSVKGRFTISRDNAKNTVYLQMYSLKPEDTAVYYCAATSVSISYRYDYWGQGTQVTVSS | high polyreactivity
QVQLVESGGGLVQAGGSLRLSCAASGSIFGNAMGWYRPAPGKERELVAAISRRGGRTYYADSVKGRFTISRDNAKNTVYLQMNSLKPEDTAVYYCANTAKTWGWWLRGYGYWGQGTQVTVSS | high polyreactivity
QVQLVESGGGLVQAGGSLRLSCAASGSIFGNAMGWYRQAPGKEREFVAAISSSGSSTYYADSVKGRFTISRDNAKNTVYLQMNSLKPEDTAVYYCANRRRSAAPKYDYWGQGTQVTVSS | high polyreactivity
QVQLVESGGGLVQAGGSLRLSCAASGSIFGNTMGWYRQAPGKEWEFVAAISSTGGNTYYADSVKGRFTISRDNAKITVYLQMNSLKPEDTAVYYCNRRYRYRFGYWGQGTQVTVSS | high polyreactivity
QVQLVESGGGLVQAGGSLRLSCAASGSIFGPNAMGWYRQAPGKERELVAAISKSGSSTYYADSVKGRFTISRDNAKNTVYLQMNSLKREDTAVYYCAAKVSYSGVFSYYYWGQGTQVTVSS | high polyreactivity
QVQLVESGGGLVQAGGSLRLSCAASGSIFGPYAMGWYRQAPGKERELVAAISKGGGSTYYADSVKGRFTISRDNAKNTVYLQMNSLKPDDTAVYYCAADQDKPYDHWGQGTQVTVSS | low polyreactivity
QVQLVESGGGLVQAGGSLRLSCAASGSIFGPYAMGWYRQAPGKERELVAANTWTGGRTYYSDSVKGRFTISRDNAKNTVYLQMNSLKPEDTAVYYCAVRHRYTRAYWGRDYWGQGTQVTVSS | low polyreactivity
QVQLVESGGGLVQAGGSLRLSCAASGSIFGPYAMGWYRQAPGKERELVADIRTSGGGTYYADSVKGRFTISRDNAKNTVYLQMNSLKPEDTAVYYCNADPKWEMGSWGQGTQVTVSS | low polyreactivity
QVQLVESGGGLVQAGGSLRLSCAASGSIFGPYAMGWYRQAPGKERELVASITNSGSTYYADSVKGRFTISRDNAKNTVYLQMNSLKPEDTAVYYCAVDERTWINDPEEYDYWGQGTQVTVSS | low polyreactivity
QVQLVESGGGLVQAGGSLRLSCAASGSIFGPYAMGWYRQAPGKERELVATITSGGRTYYADSVKGRFTISRDNAKNTVYFQLNSLKPEDTAVYYCAAAGKGRYHVRSTMDYWGQGTQVTVSS | high polyreactivity
QVQLVESGGGLVQAGGSLRLSCAASGSIFGPYMGWYRQAPGKERELVASVVSTYYADSVKGRFTISRDNAKNTVYLQMNSLKPEDTAVYYCNTQDTKNKSSVFVPSDYWGQGTQVTVSS | low polyreactivity
QVQLVESGGGLVQAGGSLRLSCAASGSIFGQNAMGWYRQAPGKEREMVDAITSGAGITYYADSVKGRFTISRDNAKNTVYLQMNSLKPEDTAVYYCNAVPSWSPSALFDYWGQGTQVTVAS | low polyreactivity
QVQLVESGGGLVQAGGSLRLSCAASGSIFGQYAMGWYRQAPGKERELVAAITWDGTSTYYADSVKGRFTISRDNAKNTVYLQMNSLKPEDTAVYYCAADFYPYSWEEVDYWGQGTQVTVSS | low polyreactivity
QVQLVESGGGLVQAGGSLRLSCAASGSIFGQYTMGWYRQAPGKERELVAVISTRGGSTYYADSVKGRFTISRDNAKNTVYLQMNSLKPEDTAVYYCAASAFRGREMDYWGQGTQVTVSS | low polyreactivity
QVQLVESGGGLVQAGGSLRLSCAASGSIFGRNAMGGYRQAPGSERELVARISSRGGSTYYADSVKGRFTISRDNAKNTVDLQMNSLKPEDTAVYYCNRDRTSQTNDYWGQGTQVTVSS | high polyreactivity
QVQLVESGGGLVQAGGSLRLSCAASGSIFGRNAMGWYIQAPGKERELVAAINSGGSTNYADSVKGRFTISRDNAKNTVYLQMNSLKPEDTAVYFCAARTYSSGRYYGYVAFYYWGQGTQVTVSS | high polyreactivity

Sequence | polyreactivity (PSR sort gate)
QVQLVESGGGLVQAGGSLRLSCAASGSIFGRNAMGWYRHAPGKERELVARISSRGGSTYYADSVKGRFTISRDNAKKTVYLQMNSLKPEDTAVYYCNRDRTWQTNDYWGQGTQVTVSS | high polyreactivity
QVQLVESGGGLVQAGGSLRLSCAASGSIFGRNAMGWYRQAPGKERELVAAINYSGTSTYYADSVKGRFTISRDNAKNTVYLQMNSLKPEDTAVYYCAKARHKSPTYTHDSWGQGTQVTVSS | high polyreactivity
QVQLVESGGGLVQAGGSLRLSCAASGSIFGRNAMGWYRQAPGKERELVAAITGSTYYADSVKGRFTISRDNAKNTVYLQMNSLKPEDTAVYYCNADYDVGWTYDTEYNYWGQGTQVTVSS | low polyreactivity
QVQLVESGGGLVQAGGSLRLSCAASGSIFGRNAMGWYRQAPGKERELVAVITSTGGSTYYADSVKGRFTISRDNAKNTVYLQMNSLKPEDTAVYYCAARTRYRYGYWGQGTQVTVSS | high polyreactivity
QVQLVESGGGLVQAGGSLRLSCAASGSIFGRNDMGWYRQAPRKERELLARITRGGSTNYADSVKGRVTISRDNAKYTVYLQMNSLKPEDTAVYYCAAGARQYRGVPDRYGYWGQGTQVTVSS | low polyreactivity
QVQLVESGGGLVQAGGSLRLSCAASGSIFGRYAMGWYRQAPGKEMELVAAISTGDSTYYADSVKGRFTISRDNAKNTVYLQMNSLKPEDTAVYYCNRRGRRGYDYWGQGTQVTVSS | high polyreactivity
QVQLVESGGGLVQAGGSLRLSCAASGSIFGRYAMGWYRQAPGKERELVAAISSSGGRTYYADSVNGRFTISRDNAKNTVYLQMNSLKPEDTAVYYCNAGTPYRGDYWGQGTQVTVSS | high polyreactivity
QVQLVESGGGLVQAGGSLRLSCAASGSIFGRYAMGWYRQAPGKERELVAAITFTGGSTYYADSVKGRFTISRDNAKNTVYLQMNSLKPEDTAVYYCAARSLFYRGYGYWGQGTQVTVSS | high polyreactivity
QVQLVESGGGLVQAGGSLRLSCAASGSIFGRYAMGWYRQAPGKERELVAAITRSGVSTYYADSVKGRFTISRDNAKNTVYLQMNSLKPEDTAVYYCNAYYPIRSSPNGYYYWGQGTQVTVSS | high polyreactivity
QVQLVESGGGLVQAGGSLRLSCAASGSIFGSNAMGWYRQAPGKERELVAAITNTGRTNYADSVKGRFTISRDNAKNTVYLQMNSLKPEDTAVYYCNTDGYEFTHFAAGSGWRFDYWGLGTQVTVSS | low polyreactivity
QVQLVESGGGLVQAGGSLRLSCAASGSIFGSNMGWYRQAPGKERELVAAISSRGGRTYYADSVKGRFTISRVNAKNTVYLQMNSQKPEDTAVYYCATRTFRGGRGYEYWGQGTQVTVSS | high polyreactivity
QVQLVESGGGLVQAGGSLRLSCAASGSIFGSYAMGWYRPAPGKERELVAGITYRGSSTYYADSVKGRFTISRDNAKNTVYLQMNSLKPEDTAVYYCAADSVFDEYDYWGQGTQVTVSS | low polyreactivity
QVQLVESGGGLVQAGGSLRLSCAASGSIFGSYAMGWYRQAPGKERELVAAITYSGGSTYYADSVKGRFTISRDNAKNTVYLHMNSLKPEDTAVYYCAADYSFYWAYFDYWGQGTQVTVSS | high polyreactivity
QVQLVESGGGLVQAGGSLRLSCAASGSIFGTNAMGWYRPAPGKERELVAAINWSGGTTYYADSVKGRFTISRDIAKNTVYLQMNSLKPEDTAVFYCNVGYPSIYDYWGQGTQVTVSS | low polyreactivity
QVQLVESGGGLVQAGGSLRLSCAASGSIFGTNAMGWYRQAPGKERELVAAITGRGGSTYYADSVKGRFTISRDNAKNTVYLQMNSLKPEDTAVYYCAVKISTYTYGYWGQGTQVTVSS | high polyreactivity
QVQLVESGGGLVQAGGSLRLSCAASGSIFGTNAMGWYRQAPGKERELVATITSAGSTYYADSVKGRFTISRYNAKNTVYLQMNSLKPEDTAVYYCARQATGYVYREYEYWGQGTQVTVSS | low polyreactivity
QVQLVESGGGLVQAGGSLRLSCAASGSIFGTNTMGWYRQAPGKERELVAAIRLSDSSTYYADSVKGRFTISRDNAKNTVYLQMNSLKPEDTAVYYCAVDYRAYHYYRYDYWGQGTQVTVSS | low polyreactivity
QVQLVESGGGLVQAGGSLRLSCAASGSIFGTYAMGWYIQAPGKEREFVAAISWSDGSTYYADSVKGRFTISRDNAKNTVYLQMNSLKPEDTAVYYCAAGPSQYTEFDYWGQGTQVTVSS | low polyreactivity
QVQLVESGGGLVQAGGSLRLSCAASGSIFGVNAMGWYRQAPGKERELVASISLSDDRTYYADSVKGRFTISRDNAKNTVYLQMNSLKPEDTAVYYCARRILWYWDVYPSLAEYDYWGQGTQVTVSS | low polyreactivity
QVQLVESGGGLVQAGGSLRLSCAASGSIFGVYAMGWYRQAPGKERELVAAIDSGGDTYYADSVKGRFTISRDNAKNTVYLQMNSLKPEDTAVYYCNAPYNRATYNYWGQGTQVTVSS | high polyreactivity
